Laboratory results: patent publication US7807153 (Genentech, dated 2010)

Molecular target: T1, DR4 expressed in transfected CHO cells (UniProt O00220 24-468, limits assumed)
T1 construct: whole, on cells; also called DR4-transfected CHO cells; DR4-transfected cells
Assay: immunohistochemistry on sections of transfected CHO cells
Protocol: CHO cells were transfected with vector alone or vector containing the gene for Apo-2 or DR4. The transfected cells were removed from culture plates, pelleted, and washed twice with PBS. The pellets were then resuspended in O.C.T. (Fisher), flash frozen in isopentain and LN_2, and later sectioned using standard protocols. Staining of the sectioned cells was performed using a Vectastain Elite ABC kit. […] The secondary antibody employed was either a biotinylated anti-c-myc 9E10 antibody or anti-Penta His antibody (Qiagen) followed by biotinylated anti-mouse IgG.

B1: single chain antibody (scFv) fragment 16E2 (scFv)
scFv: EVQLVQSGGGVERPGGSLRLSCAASGFTFDDYGMSWVRQAPGKGLEWVSGINWNGGSTGYADSVKGRVTISRDNAKNSLYLQMNSLRAEDTAVYYCAKILGAGRGWYFDLWGKGTTVTVSSGGGGSGGGGSGGGGSSELTQDPAVSVALGQTVRITCQGDSLRSYYASWYQQKPGQAPVLVIYGKNNRPSGIPDRFSGSSSGNTASLTITGAQAEDEADYYCNSRDSSGNHVVFGGGTKLTVLGAAAHHHHHHGAAEQKLISEEDLNGAA
notes: Purified by IMAC from E. coli; also called 16E2 antibody; anti-Apo-2 antibody 16E2
B1: no binding.
